# Laboratory results taken from article PMC2680606.
# Biological target: Myc-UbcM2-His6 (mouse) (UniProt P52483)
# Assay: pull-down
# Sequence of ^35S-RCBTB1 without the BTB domain and the C-terminal 87 residues (Q8NDN9 1-359): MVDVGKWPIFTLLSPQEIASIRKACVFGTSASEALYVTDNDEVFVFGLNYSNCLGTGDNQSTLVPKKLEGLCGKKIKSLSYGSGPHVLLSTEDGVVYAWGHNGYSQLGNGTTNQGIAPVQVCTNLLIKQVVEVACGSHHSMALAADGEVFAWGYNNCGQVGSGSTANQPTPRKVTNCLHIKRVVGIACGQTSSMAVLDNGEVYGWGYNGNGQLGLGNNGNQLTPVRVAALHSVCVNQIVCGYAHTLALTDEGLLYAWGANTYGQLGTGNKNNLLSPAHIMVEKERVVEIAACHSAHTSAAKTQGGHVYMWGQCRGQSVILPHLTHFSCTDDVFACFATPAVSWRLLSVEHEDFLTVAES
# Sequence of Myc-UbcM2-His6 (mouse) (P52483 whole entry): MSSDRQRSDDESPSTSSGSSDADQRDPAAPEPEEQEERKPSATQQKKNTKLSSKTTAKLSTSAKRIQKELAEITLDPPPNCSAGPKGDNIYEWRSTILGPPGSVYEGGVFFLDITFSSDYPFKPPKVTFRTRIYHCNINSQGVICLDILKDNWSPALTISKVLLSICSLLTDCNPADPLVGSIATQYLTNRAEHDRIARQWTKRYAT
substance,measurement,value
^35S-RCBTB1 without the BTB domain and the C-terminal 87 residues (from UniProt Q8NDN9 1-359) (domain or fragment),decrease of binding against wild type RCBTB1,78%
